The record followed here is PMC3351189 (Nucleic Acids Research, 2012).

The target of this experiment is WD-repeat protein-5 (WDR5), S22-334 (UniProt P61964 22-334). Briefly: ITC. A general note: Isothermal titration calorimetry measures the heat released or taken up as one component is titrated into another.
A word on the Kd: it is the equilibrium constant for the complex coming apart. GSARSEGYYPI [SET1A Win motif peptide (SET1AWin)] came in with a Kd of 260 nM.

For GSARAEPKMSA [MLL3 Win motif peptide (MLL3Win), C4708S substituted], binding was characterised by a dissociation constant (Kd) of 2030 nM.

Turning to GCARSEPKILT [MLL2 Win motif peptide (MLL2Win)], binding was characterised by a dissociation constant (Kd) of 160 nM.

In the case of GSARAEVHLRK [MLL1 Win motif peptide (MLL1Win)], the affinity, expressed as Kd, was 1130 nM.

Take GCARSEGFYTI [SET1B Win motif peptide (SET1BWin)]: the Kd is 100 nM.

In the case of GAARAEVYLRK [MLL4 Win motif peptide (MLL4Win)], the dissociation constant (Kd) is 30 nM.
